Results published in US20240025949A1, “Beta-Arrestin Effectors and Compositions and Methods of Use Thereof” (Trevena, Inc., priority 2021, published 2024).
Where no end group is shown, it is not given here.

Target: human angiotensin 2 type 1 receptor (human) (UniProt P30556)
Assay: cell-based or functional assay

Sequence of human angiotensin 2 type 1 receptor (human) (P30556 whole entry): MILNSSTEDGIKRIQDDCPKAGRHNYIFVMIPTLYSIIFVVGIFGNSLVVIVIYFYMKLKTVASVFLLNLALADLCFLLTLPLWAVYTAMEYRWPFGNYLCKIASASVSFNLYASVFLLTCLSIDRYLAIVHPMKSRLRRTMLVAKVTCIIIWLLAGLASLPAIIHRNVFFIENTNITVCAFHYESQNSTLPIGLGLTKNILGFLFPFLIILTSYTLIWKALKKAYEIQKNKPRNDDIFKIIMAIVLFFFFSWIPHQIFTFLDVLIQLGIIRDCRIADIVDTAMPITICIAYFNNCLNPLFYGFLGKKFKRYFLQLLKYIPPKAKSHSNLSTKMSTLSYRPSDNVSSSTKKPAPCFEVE

| IP One EC50 [nM] | IP One Max [%] | b-arrestin2 EC50 [nM] | b-arrestin2 Max [%] | Binder |
| --- | --- | --- | --- | --- |
| 3.6 | 10 | 430 | 42.1 | DRVYYHP-NH2 [SEQ ID NO: 57 (Asp-Arg-Val-Tyr-Tyr-His-Pro-NH2)] |
| > 10000 |  | 1300 | 24.7 | ERVYYHP (N-methyl; C-terminal amide) [SEQ ID NO: 62 (N-Me-Glu-Arg-Val-Tyr-Tyr-His-Pro-NH2)] |
| > 10000 |  | > 10000 |  | RVYEHPA (N-terminal Sar; C-terminal acid) [SEQ ID NO: 20 (Sar-Arg-Val-Tyr-Glu-His-Pro-Ala-OH)] |
| > 10000 |  | 100 | 58.1 | RVYVHPA (N-terminal Me2Gly; C-terminal acid) [SEQ ID NO: 31 (Me2G-Arg-Val-Tyr-Val-His-Pro-Ala-OH)] |
| > 10000 |  | 270 | 54.5 | RVYHHPA (N-terminal Sar; C-terminal acid) [SEQ ID NO: 22 (Sar-Arg-Val-Tyr-His-His-Pro-Ala-OH)] |
| > 10000 |  | 25 | 53 | ARVYIHPA (N-methyl residue; C-terminal acid) [SEQ ID NO: 34 (NMAla-Arg-Val-Tyr-Ile-His-Pro-Ala-OH)] |
| 190 | 20.7 | 390 | 19.9 | RVYVHPI (N-terminal Sar; C-terminal amide) [SEQ ID NO: 12 (Sar-Arg-Val-Tyr-Val-His-Pro-Ile-NH2)] |
| 2.7 | 7.1 | 12 | 67.9 | RVYIHP (N-terminal Sar; C-terminal norvaline) [SEQ ID NO: 35 (Sar-Arg-Val-Tyr-Ile-His-Pro-NVA-OH)] |
| > 10000 |  | 20 | 82.9 | RVYYHP (N-terminal Sar; C-terminal D-Phe) [SEQ ID NO: 28 (Sar-Arg-Val-Tyr-Tyr-His-Pro-D-Phe-OH)] |
| > 10000 |  | 40 | 54.9 | ARVYVHPA (N-methyl residue; C-terminal acid) [SEQ ID NO: 33 (NMAla-Arg-Val-Tyr-Val-His-Pro-Ala-OH)] |
| > 10000 |  | 33 | 64.4 | RVYFHPA (N-terminal Sar; C-terminal acid) [SEQ ID NO: 21 (Sar-Arg-Val-Tyr-Phe-His-Pro-Ala-OH)] |
| > 10000 |  | 680 | 43.1 | VYIHPF (cyclic) [SEQ ID NO: 38 (Cyclo(Val-Tyr-Ile-His-Pro-Phe))] |
| > 10000 |  | 340 | 44 | ERVYYHP (D-residue; C-terminal amide) [SEQ ID NO: 60 (D-Glu-Arg-Val-Tyr-Tyr-His-Pro-NH2)] |
| > 10000 |  | 1200 | 39.5 | RVYIHPRVYIHPRVYIHP (cyclic) [SEQ ID NO: 36 (Cyclo(Arg-Val-Tyr-Ile-His-Pro-Arg-Val-Tyr-Ile-His-Pro-Arg-Val-Tyr-Ile-His-Pro))] |
| > 10000 |  | 4600 | 43.4 | RVYIHP-NH2 [SEQ ID NO: 13 (Arg-Val-Tyr-Ile-His-Pro-NH2)] |
| > 10000 |  | 75 | 51.9 | RVYYHP (N-terminal Sar; C-terminal amide) [SEQ ID NO: 26 (Sar-Arg-Val-Tyr-Tyr-His-Pro-NH2)] |
| > 10000 |  | 1200 | 37.5 | DRVYYHP (N-methyl; C-terminal amide) [SEQ ID NO: 61 (N-Me-Asp-Arg-Val-Tyr-Tyr-His-Pro-NH2)] |
| > 10000 |  | 1400 | 19.5 | ERVYYHP-NH2 [SEQ ID NO: 59 (Glu-Arg-Val-Tyr-Tyr-His-Pro-NH2)] |
| > 10000 |  | 480 | 61.3 | RVYRHPA (N-terminal Sar; C-terminal acid) [SEQ ID NO: 24 (Sar-Arg-Val-Tyr-Arg-His-Pro-Ala-OH)] |
| 160 | 13.5 | 8 | 59.3 | RVYYHPI (N-terminal Sar; C-terminal acid) [SEQ ID NO: 14 (Sar-Arg-Val-Tyr-Tyr-His-Pro-Ile-OH)] |
| > 10000 |  | 3.4 | 58.9 | RVYVHPI (N-terminal Sar; C-terminal acid) [SEQ ID NO: 11 (Sar-Arg-Val-Tyr-Val-His-Pro-Ile-OH)] |
| > 10000 |  | 44 | 61.2 | RVYKHPA (N-terminal Sar; C-terminal acid) [SEQ ID NO: 23 (Sar-Arg-Val-Tyr-Lys-His-Pro-Ala-OH)] |
| > 10000 |  | 1700 | 62.3 | FVYIHPFVYIHPFVYIHP (cyclic) [SEQ ID NO: 37 (Cyclo(Phe-Val-Tyr-Ile-His-Pro-Phe-Val-Tyr-Ile-His-Pro-Phe-Val-Tyr-Ile-His-Pro))] |
| > 10000 |  | 530 | 35.9 | DRVYFHP-NH2 [SEQ ID NO: 63 (Asp-Arg-Val-Tyr-Phe-His-Pro-NH2)] |
| > 10000 |  | 330 | 48.7 | DRVYYHP (D-residue; C-terminal amide) [SEQ ID NO: 58 (D-Asp-Arg-Val-Tyr-Tyr-His-Pro-NH2)] |

Target: rat angiotensin 2 type 1 receptor (rat) (UniProt P25095)
Assay: cell-based or functional assay

Sequence of rat angiotensin 2 type 1 receptor (rat) (P25095 whole entry): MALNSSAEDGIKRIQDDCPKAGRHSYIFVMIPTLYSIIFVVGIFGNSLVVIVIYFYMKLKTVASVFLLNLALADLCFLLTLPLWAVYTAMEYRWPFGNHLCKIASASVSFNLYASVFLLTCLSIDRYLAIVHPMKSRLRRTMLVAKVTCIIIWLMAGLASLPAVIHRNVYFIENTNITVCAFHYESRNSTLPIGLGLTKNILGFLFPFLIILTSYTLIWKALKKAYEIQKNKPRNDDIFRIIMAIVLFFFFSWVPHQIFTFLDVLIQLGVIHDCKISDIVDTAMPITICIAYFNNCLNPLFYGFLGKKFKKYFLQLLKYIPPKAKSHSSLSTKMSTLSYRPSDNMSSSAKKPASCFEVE

| IP One EC50 [nM] | IP One Max [%] | b-arrestin2 EC50 [nM] | b-arrestin2 Max [%] | Binder |
| --- | --- | --- | --- | --- |
| 330 | 35.3 | 450 | 64.4 | DRVYYHP-NH2 [SEQ ID NO: 57 (Asp-Arg-Val-Tyr-Tyr-His-Pro-NH2)] |
| > 10000 |  | 3900 | 44.2 | ERVYYHP (N-methyl; C-terminal amide) [SEQ ID NO: 62 (N-Me-Glu-Arg-Val-Tyr-Tyr-His-Pro-NH2)] |
| > 10000 |  | 3600 | 86.6 | RVYEHPA (N-terminal Sar; C-terminal acid) [SEQ ID NO: 20 (Sar-Arg-Val-Tyr-Glu-His-Pro-Ala-OH)] |
| 13 | 6.2 | 37 | 75.9 | RVYVHPA (N-terminal Me2Gly; C-terminal acid) [SEQ ID NO: 31 (Me2G-Arg-Val-Tyr-Val-His-Pro-Ala-OH)] |
| 250 | 5.2 | 27 | 74.3 | RVYHHPA (N-terminal Sar; C-terminal acid) [SEQ ID NO: 22 (Sar-Arg-Val-Tyr-His-His-Pro-Ala-OH)] |
| > 10000 |  | 32 | 81.7 | ARVYIHPA (N-methyl residue; C-terminal acid) [SEQ ID NO: 34 (NMAla-Arg-Val-Tyr-Ile-His-Pro-Ala-OH)] |
| 79 | 44.9 | 120 | 34.4 | RVYVHPI (N-terminal Sar; C-terminal amide) [SEQ ID NO: 12 (Sar-Arg-Val-Tyr-Val-His-Pro-Ile-NH2)] |
| 12 | 30.5 | 9.3 | 79.8 | RVYIHP (N-terminal Sar; C-terminal norvaline) [SEQ ID NO: 35 (Sar-Arg-Val-Tyr-Ile-His-Pro-NVA-OH)] |
| 64 | 24.6 | 19 | 91.4 | RVYYHP (N-terminal Sar; C-terminal D-Phe) [SEQ ID NO: 28 (Sar-Arg-Val-Tyr-Tyr-His-Pro-D-Phe-OH)] |
| > 10000 |  | 31 | 86.9 | ARVYVHPA (N-methyl residue; C-terminal acid) [SEQ ID NO: 33 (NMAla-Arg-Val-Tyr-Val-His-Pro-Ala-OH)] |
| > 10000 |  | 13 | 82.7 | RVYFHPA (N-terminal Sar; C-terminal acid) [SEQ ID NO: 21 (Sar-Arg-Val-Tyr-Phe-His-Pro-Ala-OH)] |
| 920 | 20.8 | 2500 | 66.4 | VYIHPF (cyclic) [SEQ ID NO: 38 (Cyclo(Val-Tyr-Ile-His-Pro-Phe))] |
| > 10000 |  | 180 | 79.3 | ERVYYHP (D-residue; C-terminal amide) [SEQ ID NO: 60 (D-Glu-Arg-Val-Tyr-Tyr-His-Pro-NH2)] |
| 100 | 19.2 | 1900 | 32.8 | RVYIHPRVYIHPRVYIHP (cyclic) [SEQ ID NO: 36 (Cyclo(Arg-Val-Tyr-Ile-His-Pro-Arg-Val-Tyr-Ile-His-Pro-Arg-Val-Tyr-Ile-His-Pro))] |
| > 10000 |  | 43000 | 165 | RVYIHP-NH2 [SEQ ID NO: 13 (Arg-Val-Tyr-Ile-His-Pro-NH2)] |
| > 10000 |  | 38 | 77.3 | RVYYHP (N-terminal Sar; C-terminal amide) [SEQ ID NO: 26 (Sar-Arg-Val-Tyr-Tyr-His-Pro-NH2)] |
| > 10000 |  | 2100 | 60.4 | DRVYYHP (N-methyl; C-terminal amide) [SEQ ID NO: 61 (N-Me-Asp-Arg-Val-Tyr-Tyr-His-Pro-NH2)] |
| > 10000 |  | 820 | 27.8 | ERVYYHP-NH2 [SEQ ID NO: 59 (Glu-Arg-Val-Tyr-Tyr-His-Pro-NH2)] |
| 7.4 | 15.1 | 63 | 74.1 | RVYRHPA (N-terminal Sar; C-terminal acid) [SEQ ID NO: 24 (Sar-Arg-Val-Tyr-Arg-His-Pro-Ala-OH)] |
| 32 | 19.3 | 14 | 79 | RVYYHPI (N-terminal Sar; C-terminal acid) [SEQ ID NO: 14 (Sar-Arg-Val-Tyr-Tyr-His-Pro-Ile-OH)] |
| 3.5 | 24.4 | 6.1 | 80.7 | RVYVHPI (N-terminal Sar; C-terminal acid) [SEQ ID NO: 11 (Sar-Arg-Val-Tyr-Val-His-Pro-Ile-OH)] |
| 11 | 10.3 | 39 | 84.9 | RVYKHPA (N-terminal Sar; C-terminal acid) [SEQ ID NO: 23 (Sar-Arg-Val-Tyr-Lys-His-Pro-Ala-OH)] |
| 240 | 14.7 | 1900 | 60.7 | FVYIHPFVYIHPFVYIHP (cyclic) [SEQ ID NO: 37 (Cyclo(Phe-Val-Tyr-Ile-His-Pro-Phe-Val-Tyr-Ile-His-Pro-Phe-Val-Tyr-Ile-His-Pro))] |
| > 10000 |  | 530 | 50.1 | DRVYFHP-NH2 [SEQ ID NO: 63 (Asp-Arg-Val-Tyr-Phe-His-Pro-NH2)] |
| 1400 | 9.94 | 260 | 81.1 | DRVYYHP (D-residue; C-terminal amide) [SEQ ID NO: 58 (D-Asp-Arg-Val-Tyr-Tyr-His-Pro-NH2)] |
